B1: Rab GTPase-binding effector protein 1 (Homo sapiens), Q15276 (parent)
chain: MAQPGPASQPDVSLQQRVAELEKINAEFLRAQQQLEQEFNQKRAKFKELYLAKEEDLKRQNAVLQAAQDDLGHLRTQLWEAQAEMENIKAIATVSENTKQEAIDEVKRQWREEVASLQAVMKETVRDYEHQFHLRLEQERTQWAQYRESAEREIADLRRRLSEGQEEENLENEMKKAQEDAEKLRSVVMPMEKEIAALKDKLTEAEDKIKELEASKVKELNHYLEAEKSCRTDLEMYVAVLNTQKSVLQEDAEKLRKELHEVCHLLEQERQQHNQLKHTWQKANDQFLESQRLLMRDMQRMEIVLTSEQLRQVEELKKKDQEDDEQQRLNKRKDHKKADVEEEIKIPVVCALTQEESSAQLSNEEEHLDSTRGSVHSLDAGLLLPSGDPFSKSDNDMFKDGLRRAQSTDSLGTSGSLQSKALGYNYKAKSAGNLDESDFGPLVGADSVSENFDTASLGSLQMPSGFMLTKDQERAIKAMTPEQEETASLLSSVTQGMESAYVSPSGYRLVSETEWNLLQKEVHNAGNKLGRRCDMCSNYEKQLQGIQIQEAETRDQVKKLQLMLRQANDQLEKTMKDKQELEDFIKQSSEDSSHQISALVLRAQASEILLEELQQGLSQAKRDVQEQMAVLMQSREQVSEELVRLQKDNDSLQGKHSLHVSLQQAEDFILPDTTEALRELVLKYREDIINVRTAADHVEEKLKAEILFLKEQIQAEQCLKENLEETLQLEIENCKEEIASISSLKAELERIKVEKGQLESTLREKSQQLESLQEIKISLEEQLKKETAAKATVEQLMFEEKNKAQRLQTELDVSEQVQRDFVKLSQTLQVQLERIRQADSLERIRAILNDTKLTDINQLPET
partner: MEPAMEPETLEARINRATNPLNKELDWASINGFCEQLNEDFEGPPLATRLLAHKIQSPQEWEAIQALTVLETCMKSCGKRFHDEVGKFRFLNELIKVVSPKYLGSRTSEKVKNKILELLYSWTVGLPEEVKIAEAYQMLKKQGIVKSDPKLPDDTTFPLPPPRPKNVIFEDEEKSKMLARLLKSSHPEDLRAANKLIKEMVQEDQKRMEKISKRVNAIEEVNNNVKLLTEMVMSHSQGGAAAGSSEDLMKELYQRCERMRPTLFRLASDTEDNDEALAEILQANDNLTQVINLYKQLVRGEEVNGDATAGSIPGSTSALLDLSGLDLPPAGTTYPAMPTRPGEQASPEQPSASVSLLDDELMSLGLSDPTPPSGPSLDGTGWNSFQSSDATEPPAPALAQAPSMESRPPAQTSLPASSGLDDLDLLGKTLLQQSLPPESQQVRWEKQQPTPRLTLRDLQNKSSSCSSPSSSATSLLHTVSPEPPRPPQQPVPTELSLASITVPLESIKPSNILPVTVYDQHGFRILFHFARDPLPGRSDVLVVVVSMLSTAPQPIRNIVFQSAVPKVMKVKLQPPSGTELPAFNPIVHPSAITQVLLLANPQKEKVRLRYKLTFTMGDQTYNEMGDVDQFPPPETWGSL

Variants of: B1
Details: with gga1_human GGA1, Q9UJY5

effect of a mutation on the interaction | Variant
decreasing interaction | N568R
decreasing interaction | Q566R

Second part, the variant before the results:

Variant | effect of a mutation on the interaction
M563R | decreasing interaction
Q561A | decreasing interaction
Q566A | decreasing interaction
